Results as given in publication PMC5374433, “Theranostic Value of Multimers: Lessons Learned from Trimerization of Neurotensin Receptor Ligands and Other Targeting Vectors” (Pharmaceuticals, 2017).
Read-outs that look alike come from different tables or passages of the source.

What was measured:
human NTS1 = human NTS1 (Homo sapiens, UniProt P30989); experiment: Competitive radioligand binding assay, NTS1; conditions: Ki (NTS1, nM), membranes of CHO cells stably expressing human NTS1; mean ± SEM, 4-8 experiments
Sequence of human NTS1 (P30989 whole entry): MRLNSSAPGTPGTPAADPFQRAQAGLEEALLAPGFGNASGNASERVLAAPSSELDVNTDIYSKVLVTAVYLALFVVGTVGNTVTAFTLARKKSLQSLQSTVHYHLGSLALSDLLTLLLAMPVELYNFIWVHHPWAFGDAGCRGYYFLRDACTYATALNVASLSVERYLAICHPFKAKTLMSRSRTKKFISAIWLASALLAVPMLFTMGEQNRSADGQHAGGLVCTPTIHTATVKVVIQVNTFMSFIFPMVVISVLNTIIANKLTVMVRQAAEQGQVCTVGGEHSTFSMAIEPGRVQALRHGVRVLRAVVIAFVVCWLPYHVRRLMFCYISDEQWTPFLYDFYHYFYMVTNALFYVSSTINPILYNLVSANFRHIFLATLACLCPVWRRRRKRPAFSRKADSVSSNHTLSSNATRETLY
Experimental: (§1) Receptor binding data were performed as described previously. […] NTS2 binding was conducted using homogenates of membranes from HEK 293 cells transiently transfected with pcDNA3.1 carrying the human NTS2 gene (Missouri S&T cDNA Resource Center (UMR), Rolla, MO, USA) using the Mirus TransIT-293 transfection reagent (MoBiTec, Göttingen, Germany) according to the manufacturer’s protocol.
(§2) Data analysis of the competition binding curves from the radioligand displacement experiments was done by non-linear regression analysis when applying the algorithms of the PRISM 6.0 software package (GraphPad Software, San Diego, CA, USA). EC50 values were derived from each dose-response curve and were subsequently transformed into the corresponding Ki values by applying the equation of Cheng and Prusoff. Mean Ki values and the corresponding S.E.M. values (standard error of the mean) were determined by analyzing four to eight individual experiments.

PSMA = system: PSMA; set-up: method as in PMID 25999035; conditions: Ga complexes; read-out: Affinity IC50 (nM), PSMA; cited from earlier work
[1] = Octanol/PBS distribution coefficient log D pH 7.4; type: physicochemical
[2] = Biodistribution, LNCaP xenograft; conditions: in vivo, 60 min p.i., estimated from PET ROI analysis, ± SD
αvβ6 integrin [3] = experiment: Affinity to αvβ6 integrin; type: binding; conditions: Ga complexes
[4] = in vivo, H2009 xenograft, 90 min p.i., estimated from PET ROI analysis, ± SD
αvβ6 integrin [5] = system: αvβ6 integrin; set-up: method as in PMID 27980050; conditions: Ga complexes; read-out: Affinity IC50 (nM), αvβ6 integrin; cited from earlier work
human NTS2 = target: T1, human NTS2 (Homo sapiens, UniProt O95665); experiment: Competitive radioligand binding assay, NTS2
T1 construct: host or cells: HEK 293 cells (transient transfection, pcDNA3.1)
T1 sequence (O95665 whole entry): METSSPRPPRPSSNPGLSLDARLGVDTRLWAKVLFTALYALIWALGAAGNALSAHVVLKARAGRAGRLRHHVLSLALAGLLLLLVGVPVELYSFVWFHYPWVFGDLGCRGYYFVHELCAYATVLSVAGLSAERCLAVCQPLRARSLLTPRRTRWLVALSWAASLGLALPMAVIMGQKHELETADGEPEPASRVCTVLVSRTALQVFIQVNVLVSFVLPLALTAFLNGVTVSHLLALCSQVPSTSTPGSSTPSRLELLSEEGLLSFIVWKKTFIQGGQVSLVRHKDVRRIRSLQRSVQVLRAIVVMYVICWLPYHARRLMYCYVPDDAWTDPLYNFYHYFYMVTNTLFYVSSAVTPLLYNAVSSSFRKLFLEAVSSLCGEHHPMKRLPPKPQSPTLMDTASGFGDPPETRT
Experimental: as §1, §2

[6] = Biodistribution in HT29 tumor-bearing nude mice; type: in vivo, mouse; conditions: mouse, in vivo, 60 min p.i.
Experimental: For in vivo evaluation of [^68Ga]Ga-TRAP(NT4)3 the NTS1-positive human colorectal adenocarcinoma cells HT29 were injected in nude mice to generate a subcutaneous tumor. The radioligand was injected in the tail vein of the mice and the biodistribution was determined 60 and 90 min after tracer injection. […] The clearance rate of [^68Ga]Ga-TRAP(NT4)3 in these excretion organs was apparently low. […] (1.44 %ID/g). Blocking experiments were performed to confirm the specificity of the tumor uptake of [^68Ga]Ga-TRAP(NT4)3 in vivo. Therefore, TRAP(NT4)3 (20 nmol) or NT4 (100 nmol) were co-injected together with the radiotracer to define the nonspecific uptake of the tracer in the tumor region. […] Apart from the intestine, the uptake in all other organs was not affected by the blocking substances (Table 2), confirming the receptor-mediated uptake of [^68Ga]Ga-TRAP(NT4)3, as it was reported that NTS receptors are expressed in the small intestine of mice.
All animal experiments were performed in compliance with the protocols approved by the local Animal Protection Authorities (Regierung Mittelfranken, Germany, no. 54-2532.1-15/08). Female athymic NMRI nude mice (nu/nu) were obtained from Harlan Winkelmann GmbH (Borchen, Germany) at four weeks of age and were kept under standard conditions (12 h light/dark) with food and water available ad libitum for at least five weeks. HT29 tumors were generated as described before.
HT29 xenografted nude mice were injected with [^68Ga]Ga-TRAP(NT4)3 into a tail vein (2.5–7.5 MBq/mouse). The animals were killed by cervical dislocation 60 or 90 min p.i. The tumors, other tissues (lung, liver, kidneys, heart, spleen, brain, muscle, femur, and intestine) and blood were removed and weighed. Radioactivity of the samples was measured using a γ-counter and expressed as the percentage of injected dose per gram of tissue (%ID/g), from which tumor-to-blood ratios were calculated. Blocking experiments were carried out by co-injecting randomly chosen mice with TRAP(NT4)3 (20 nmol/mouse) or NT4 (100 nmol/mouse) together with the radiotracer. These mice were killed by cervical dislocation at 60 min p.i., and organs and tissue were removed, weighed, and counted as described above.

[7] = in vivo; cited from earlier work
H2009 xenograft = conditions: in vivo, 1.5 h; cited from earlier work
[8] = cited from earlier work

For `CC(C)C[C@H](NC(=O)[C@@H](NC(=O)[C@H](Cc1ccc(O)cc1)NC(=O)[C@@H]1CCCN1C(=O)[C@H](CCCCN)NC(=O)CN(CCCCN)C(=O)[C@@H](N)CCCCn1cc(CNC(=O)CCP(=O)(O)CN2CCN(CP(=O)(O)CCC(=O)NCc3cn(CCCC[C@H](N)C(=O)N(CCCCN)CC(=O)N[C@@H](CCCCN)C(=O)N4CCC[C@H]4C(=O)N[C@@H](Cc4ccc(O)cc4)C(=O)N[C@H](C(=O)N[C@@H](CC(C)C)C(=O)O)C(C)(C)C)nn3)CCN(CP(=O)(O)CCC(=O)NCc3cn(CCCC[C@H](N)C(=O)N(CCCCN)CC(=O)N[C@@H](CCCCN)C(=O)N4CCC[C@H]4C(=O)N[C@@H](Cc4ccc(O)cc4)C(=O)N[C@H](C(=O)N[C@@H](CC(C)C)C(=O)O)C(C)(C)C)nn3)CC2)nn1)C(C)(C)C)C(=O)O` (single isomer, unassigned) [Ga-TRAP(NT4)3], the Ki (human NTS1) was 0.12 ± 0.03 nM.
For `O=C(O)CC[C@H](NC(=O)N[C@@H](CCCCNC(=O)CCCCCCC(=O)NCCCC[C@H](NC(=O)[C@H](Cc1ccccc1)NC(=O)[C@H](Cc1ccccc1)NC(=O)CCC(C(=O)O)N1CCN(CC(=O)O)CCN(CC(=O)O)CCN(CC(=O)O)CC1)C(=O)O)C(=O)O)C(=O)O` (stereo partly shown) [DOTAGA-DUPA], the IC50 (PSMA) is listed as 36 nM, the logD [1] is listed as -3.6 ± 0.2 and the tissue uptake at 1 h ([2]; read-out: Blood %ID/g) is listed as 2.5 ± 0.14 %ID/g. It also gave a tissue uptake at 1 h ([2]; read-out: Kidney %ID/g) of 29 ± 7 %ID/g, a tissue uptake at 1 h ([2]; read-out: Liver %ID/g) of 2 ± 0.17 %ID/g and a tissue uptake at 1 h ([2]; read-out: Muscle %ID/g) of 1.2 ± 0.13 %ID/g. The tissue uptake at 1 h ([2]; read-out: Tumor %ID/g) was 2 ± 0.2 %ID/g.
With `CC(C)C[C@@H]1NC(=O)[C@H](CC(=O)O)NC(=O)CNC(=O)[C@H](CCCNC(=N)N)NC(=O)[C@H](Cc2ccccc2)NC(=O)[C@H](CCCCNC(=O)CCc2cn(CCCNC(=O)CCP(=O)(O)CN3CCN(CP(=O)(O)CCC(=O)NCCCn4cc(CCC(=O)NCCCC[C@H]5C(=O)N[C@@H](Cc6ccccc6)C(=O)N[C@@H](CCCNC(=N)N)C(=O)NCC(=O)N[C@@H](CC(=O)O)C(=O)N[C@@H](CC(C)C)C(=O)N[C@@H](C)C(=O)N[C@@H](Cc6ccccc6)C(=O)N6CCC[C@@H]6C(=O)N5C)nn4)CCN(CP(=O)(O)CCC(=O)NCCCn4cc(CCC(=O)NCCCC[C@H]5C(=O)N[C@@H](Cc6ccccc6)C(=O)N[C@@H](CCCNC(=N)N)C(=O)NCC(=O)N[C@@H](CC(=O)O)C(=O)N[C@@H](CC(C)C)C(=O)N[C@@H](C)C(=O)N[C@@H](Cc6ccccc6)C(=O)N6CCC[C@@H]6C(=O)N5C)nn4)CC3)nn2)N(C)C(=O)[C@H]2CCCN2C(=O)[C@H](Cc2ccccc2)NC(=O)[C@H](C)NC1=O` [TRAP(AvB6)3] the “Affinity factor monomer/trimer, αvβ6 integrin” value (αvβ6 integrin [3]) was 11, the tissue uptake at 1.5 h ([4]; Blood %ID/g) was 1.9 ± 0.15 %ID/g and the tissue uptake at 1.5 h ([4]; Kidney %ID/g) was 17.7 ± 6.5 %ID/g. The tissue uptake at 1.5 h ([4]; Liver %ID/g) was 3.7 ± 0.14 %ID/g, the tissue uptake at 1.5 h ([4]; Muscle %ID/g) was 0.71 ± 0.1 %ID/g and the tissue uptake at 1.5 h ([4]; Tumor %ID/g) was 0.92 ± 0.08 %ID/g. For the same compound, the IC50 (αvβ6 integrin [5]) was 0.023 nM.
`CC(C)C[C@H](NC(=O)[C@@H](NC(=O)[C@H](Cc1ccc(O)cc1)NC(=O)[C@@H]1CCCN1C(=O)[C@H](CCCCN)NC(=O)CN(CCCCN)C(=O)[C@@H](N)CCCCn1cc(CNC(=O)CCP(=O)(O)CN2CCN(CP(=O)(O)CCC(=O)NCc3cn(CCCC[C@H](N)C(=O)N(CCCCN)CC(=O)N[C@@H](CCCCN)C(=O)N4CCC[C@H]4C(=O)N[C@@H](Cc4ccc(O)cc4)C(=O)N[C@H](C(=O)N[C@@H](CC(C)C)C(=O)O)C(C)(C)C)nn3)CCN(CP(=O)(O)CCC(=O)NCc3cn(CCCC[C@H](N)C(=O)N(CCCCN)CC(=O)N[C@@H](CCCCN)C(=O)N4CCC[C@H]4C(=O)N[C@@H](Cc4ccc(O)cc4)C(=O)N[C@H](C(=O)N[C@@H](CC(C)C)C(=O)O)C(C)(C)C)nn3)CC2)nn1)C(C)(C)C)C(=O)O` [TRAP(NT4)3] showed a Ki (human NTS2) of 260 ± 50 pM, a logD ([1]; octanol/PBS, Ga complex, ± standard deviation, first reported herein, read-out: log D pH 7.4) of -3.7 ± 0.1 and a Ki (human NTS1) of 0.47 ± 0.05 nM. It also gave a tissue uptake at 1 h ([6]; read-out: HT29 tumor uptake) of 1.74 %ID/g, a tissue uptake at 1 h ([6]; read-out: blood uptake) of 0.13 %ID/g and a tissue uptake at 1 h ([6]; read-out: kidney uptake) of 95 %ID/g. It also gave a tissue uptake at 1 h ([6]; read-out: liver uptake) of 11 %ID/g and a tissue uptake at 1 h ([6]; read-out: muscle uptake) of 0.09 %ID/g.
In the case of “Arg^8-Arg^9-Pro^10-Tyr^11-Ile^12-Leu^13-OH [NT(8–13)]”, the biological half-life [7] is given as “only a few minutes, or even less”.
In the case of “TRAP(AvB6)1: Ga-monomer of c(FRGDLAF-p[NMe]K), αvβ6 integrin (cyclo(FRGDLAF); not fully specified (C-terminus); also: TRAP chelator Ga complex, attachment site not given here)”, the “Blood %ID/g” value (H2009 xenograft) is given as 0.17 %ID/g, the “Kidney %ID/g” value (H2009 xenograft) is given as 4.3 %ID/g and the “Liver %ID/g” value (H2009 xenograft) is given as 0.36 %ID/g. For the same compound, the “Muscle %ID/g” value (H2009 xenograft) was 0.06 %ID/g, the “Tumor %ID/g” value (H2009 xenograft) was 0.65 %ID/g and the “log D pH 7.4” value [8] was −3.7. The IC50 (αvβ6 integrin [5]) was 0.26 nM.
